The values that follow are results of earlier work, collected in patent publication US20230279132A1, “TREATMENT OF B CELL MALIGNANCIES” (NOVARTIS AG, priority 2020, published 2023).

This data set relates to DLBCL. The note with it: plus lenalidomide; relapsed or refractory DLBCL ineligible for transplants.

B1: tafasitamab-cxix: FDA-approved with lenalidomide for relapsed or refractory DLBCL (antibody, chains of the INN, looked up)
heavy: EVQLVESGGGLVKPGGSLKLSCAASGYTFTSYVMHWVRQAPGKGLEWIGYINPYNDGTKYNEKFQGRVTISSDKSISTAYMELSSLRSEDTAMYYCARGTYYYGTRVFDYWGQGTLVTVSSASTKGPSVFPLAPSSKSTSGGTAALGCLVKDYFPEPVTVSWNSGALTSGVHTFPAVLQSSGLYSLSSVVTVPSSSLGTQTYICNVNHKPSNTKVDKKVEPKSCDKTHTCPPCPAPELLGGPDVFLFPPKPKDTLMISRTPEVTCVVVDVSHEDPEVQFNWYVDGVEVHNAKTKPREEQFNSTFRVVSVLTVVHQDWLNGKEYKCKVSNKALPAPEEKTISKTKGQPREPQVYTLPPSREEMTKNQVSLTCLVKGFYPSDIAVEWESNGQPENNYKTTPPMLDSDGSFFLYSKLTVDKSRWQQGNVFSCSVMHEALHNHYTQKSLSLSPG
light: DIVMTQSPATLSLSPGERATLSCRSSKSLQNVNGNTYLYWFQQKPGQSPQLLIYRMSNLNSGVPDRFSGSGSGTEFTLTISSLEPEDFAVYYCMQHLEYPITFGAGTKLEIKRTVAAPSVFIFPPSDEQLKSGTASVVCLLNNFYPREAKVQWKVDNALQSGNSQESVTEQDSKDSTYSLSSTLTLSKADYEKHKVYACEVTHQGLSSPVTKSFNRGEC
In the case of B1, the CR is 37% and the ORR is given as 55%.
